In patent US12702697B2, “Compositions and methods for treatment of headache disorders and neuropathic pain” (Washington University, priority 2019, dated 2026):

Test system: mTBI-induced memory deficit in mice
Assay: Novel object recognition (NOR) assay after mTBI
Type: in vivo, mouse
Conditions: ld-IL2 between day 6 and 12 post-mTBI
Method: The novel object recognition (NOR) assay was used to test the effect of mTBI and ld-IL2 treatment on cognition. On the training day, mice were allowed to explore two identical objects in an arena for 10 minutes. The next day, mice were allowed to explore the same space in the presence of the familiar object and a novel object to test long-term recognition memory. […] After mTBI, mice spent similar amounts of time exploring the familiar and the novel object, indicating a deficit in recognition memory (FIG. 12, mTBI+saline). […] Remarkably, the effect of ld-IL2 on memory deficit lasted for at least 20 days after the cessation of treatment.

B1: ld-IL2: Recombinant mouse IL2 (carrier-free; Biolegend), given as daily low-dose i.p. injection (protein, UniProt P04351 21-169, looked up)
Interleukin-2: APTSSSTSSSTAEAQQQQQQQQQQQQHLEQLLMDLQELLSRMENYRNLKLPRMLTFKFYLPKQATELKDLQCLEDELGPLRHVLDLTQSKSFQLEDAENFISNIRVTVVKLKGSDNTFECQFDDESATVVDFLRRWIAFCQSIISTSPQ
duration of the effect on memory deficit after cessation of treatment: at least 20 days | novel object recognition deficit after mTBI: did not exhibit NOR deficit
